For test [1], the target named is HER2 on cancer cells (MCF7, SKBR3, BT474, SKOV3, OVCAR3) (human) (UniProt P04626). Kind of test: flow cytometry on OVCAR3 cells; retelling of FIG. 16 with a different last digit (1436 there).
For test [2] the target is unchanged. Kind of test: flow cytometry, 100 nM memAb trastuzumab on BT474 cells, secondary anti-kappa-647 (secondary alone: 392). A general note: Flow cytometry measures light scatter and fluorescence of single cells or particles in a stream.
Test [3] shares this target. Kind of test: flow cytometry, 100 nM memAb trastuzumab on OVCAR3 cells, secondary anti-kappa-647 (secondary alone: 307).
The target is the same in test [4]. Kind of test: flow cytometry, 100 nM memAb trastuzumab on SKBR3 cells, secondary anti-kappa-647 (secondary alone: 330).
Test [5] has the same target. Kind of test: cell-based or functional assay.
For test [6] the target is unchanged. As to the kind of experiment: flow cytometry, 100 nM memAb trastuzumab on MCF7 cells, secondary anti-kappa-647 (secondary alone: 338).
Test [7] shares this target. As to the kind of experiment: flow cytometry, 100 nM memAb trastuzumab on SKOV3 cells, secondary anti-kappa-647 (secondary alone: 370).

In test [1], “meditope-enabled I83E trastuzumab IgG (antibody)” registered an MFI of 1440. Besides, the median fluorescence intensity (MFI) in test [2] is 31700. In test [3], this substance displayed a median fluorescence intensity (MFI) of 1440. The median fluorescence intensity (MFI) in test [4] worked out at 34400. In addition, in test [5], the EC50 of Jurkat-NFAT-Luc meditope-CAR cell activation (luminescence), co-culture with BT474 worked out at 0.26 nM; the EC50 of Jurkat-NFAT-Luc meditope-CAR cell activation (luminescence), co-culture with MCF7 was determined as 0.42 nM; the EC50 of Jurkat-NFAT-Luc meditope-CAR cell activation (luminescence), co-culture with SKBR3 came out at 0.83 nM; the EC50 of Jurkat-NFAT-Luc meditope-CAR cell activation (luminescence), co-culture with SKOV3 is 0.35 nM. For the same substance, in test [5], the IC50 of cancer cell viability, BT474 co-incubated with memAb trastuzumab and FabRack T cells, 3 days was determined as 0.33 nM; the IC50 of cancer cell viability, MCF7 co-incubated with memAb trastuzumab and FabRack T cells, 3 days came to 0.069 nM; the IC50 of cancer cell viability, SKBR3 co-incubated with memAb trastuzumab and FabRack T cells, 3 days was determined as 0.11 nM; the IC50 of cancer cell viability, SKOV3 co-incubated with memAb trastuzumab and FabRack T cells, 3 days came to 0.046 nM. Also, the median fluorescence intensity (MFI) in test [6] was 985. This substance also registered a median fluorescence intensity (MFI) in test [7] of 43200.

These data come from US20210061879A1.
